Measured values: article PMC4735607, “Reversal of axonal growth defects in an extraocular fibrosis model by engineering the kinesin–microtubule interface” (Nature Communications, 2016)

Tests used:
[1] = target: T1, microtubules of recombinant human TUBA1B/TUBB3 tubulin with TUBB3 R262A (human, UniProt P68363-1 1-451; Q13509-1 1-450, K40R | R262A); assay: co-sedimentation; BG-549-labelled HK349 with MTs; x2 MA buffer, 1 mg/ml casein, 40 uM taxol, 1 mM ADP and 1 U/ml hexokinase (ADP state); conditions: both partners purified
T1 construct: human beta3-tubulin TUBB3 with the synthetic mutation R262A; also called R262A MTs; β-R262A MT; source: HighFive insect cells (baculovirus), purified (DEAE Sepharose, TALON, anti-FLAG resin), polymerized with taxol; not shown: FLAG (DYKDDDDK)
T1 sequence (P68363 whole entry K40R, chain 1 of 2): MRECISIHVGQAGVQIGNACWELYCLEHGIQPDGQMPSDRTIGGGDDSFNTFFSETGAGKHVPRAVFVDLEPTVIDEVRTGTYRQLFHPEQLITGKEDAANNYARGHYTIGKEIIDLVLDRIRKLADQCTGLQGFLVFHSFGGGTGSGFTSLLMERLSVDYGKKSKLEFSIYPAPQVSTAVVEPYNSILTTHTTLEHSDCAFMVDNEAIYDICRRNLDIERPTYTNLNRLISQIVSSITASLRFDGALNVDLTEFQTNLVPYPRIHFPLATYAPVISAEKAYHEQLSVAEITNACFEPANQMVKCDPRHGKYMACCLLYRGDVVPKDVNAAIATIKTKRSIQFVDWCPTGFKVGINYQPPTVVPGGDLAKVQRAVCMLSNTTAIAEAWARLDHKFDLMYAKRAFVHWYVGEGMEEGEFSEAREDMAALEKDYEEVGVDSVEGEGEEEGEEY
T1 sequence (Q13509 whole entry R262A, chain 2 of 2): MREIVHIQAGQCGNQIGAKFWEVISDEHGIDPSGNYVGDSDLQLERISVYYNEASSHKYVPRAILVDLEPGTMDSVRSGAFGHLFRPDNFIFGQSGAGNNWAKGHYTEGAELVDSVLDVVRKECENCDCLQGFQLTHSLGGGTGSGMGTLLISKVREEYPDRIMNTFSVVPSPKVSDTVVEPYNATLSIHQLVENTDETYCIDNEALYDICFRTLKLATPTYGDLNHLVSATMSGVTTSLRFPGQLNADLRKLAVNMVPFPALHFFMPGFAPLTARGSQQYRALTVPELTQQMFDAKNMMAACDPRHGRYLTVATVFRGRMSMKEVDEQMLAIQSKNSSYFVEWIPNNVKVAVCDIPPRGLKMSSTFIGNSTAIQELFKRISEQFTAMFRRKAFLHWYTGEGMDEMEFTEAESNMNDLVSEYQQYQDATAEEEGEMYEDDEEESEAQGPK

[2] = target: T1, microtubules of recombinant human …; assay: co-sedimentation; BG-549-labelled HK349 with MTs; x2 MA buffer, 1 mg/ml casein, 40 uM taxol, 1 U/ml apyrase (nucleotide-free state); conditions: both partners purified
[3] = target: T1, microtubules of recombinant human …; assay: co-sedimentation; BG-549-labelled HK349 with MTs; x2 MA buffer, 1 mg/ml casein, 40 uM taxol, 1 mM AMPPNP and 1 U/ml apyrase (AMPPNP state); conditions: both partners purified
[4] = target: T2, microtubules of recombinant human TUBA1B/TUBB3 tubulin, wild type (human, UniProt P68363-1 1-451; Q13509-1 1-450, K40R); assay: single-molecule motility assay (total internal reflection fluorescence microscopy); MTs immobilised on PEG-coated glass via streptavidin and biotinylated nonmotile kinesin HK340-E236A; BG-549-labelled HK432 at 0.4 nM; x2 MA buffer pH 6.8, 1 mM ATP, 1 mg/ml casein, 10 uM taxol, 25 °C; conditions: both partners purified
T2 construct: Polymer of alpha/beta heterodimers stabilised with taxol; also called WT MTs; WT MT; source: HighFive insect cells (baculovirus), purified (DEAE Sepharose, TALON, anti-FLAG resin), polymerized with taxol; not shown: FLAG (DYKDDDDK)
T2 sequence (P68363 whole entry K40R, chain 1 of 2): as the sequence (P68363 whole entry K40R, chain 1 of 2) above
T2 sequence (Q13509 whole entry, chain 2 of 2): as the sequence (Q13509 whole entry R262A, chain 2 of 2) above, with A262R counted along it

[5] = target: microtubules of recombinant human TUBA1B/TUBB3 tubulin with TUBB3 R262A (human) (UniProt P68363)
Sequence of microtubules of recombinant human TUBA1B/TUBB3 tubulin with TUBB3 R262A (human) (P68363 whole entry K40R, chain 1 of 2): as the sequence (P68363 whole entry K40R, chain 1 of 2) above
Sequence of microtubules of recombinant human TUBA1B/TUBB3 tubulin with TUBB3 R262A (human) (Q13509 whole entry R262A, chain 2 of 2, further chain): as the sequence (Q13509 whole entry R262A, chain 2 of 2) above

[6] = target: microtubules of recombinant human TUBA1B/TUBB3 tubulin with TUBB3 R262H (human) (UniProt P68363)
Sequence of microtubules of recombinant human TUBA1B/TUBB3 tubulin with TUBB3 R262H (human) (P68363 whole entry K40R, chain 1 of 2): as the sequence (P68363 whole entry K40R, chain 1 of 2) above
Sequence of microtubules of recombinant human TUBA1B/TUBB3 tubulin with TUBB3 R262H (human) (Q13509 whole entry R262H, chain 2 of 2, further chain): as the sequence (Q13509 whole entry R262A, chain 2 of 2) above, with A262H counted along it

[7] = target: T1, microtubules of recombinant human …; assay: single-molecule motility assay (total internal reflection fluorescence microscopy); MTs immobilised on PEG-coated glass via streptavidin and biotinylated nonmotile kinesin HK340-E236A; BG-549-labelled HK432 at 0.4 nM; x2 MA buffer pH 6.8, 1 mM ATP, 1 mg/ml casein, 10 uM taxol, 25 °C; conditions: both partners purified

Row | fold increase in Kd against the WT–WT pair [1] | fold increase in Kd against the WT–WT pair [2] | binding result [4] | Binder | other results
1 | 2 fold | 10 fold | – | D279R KIF5B, single-headed construct HK349 (residues 1-349, SNAP tag, His6) (domain or fragment, human, UniProt P33176 1-349, looked up, fluorescent dye BG-549 (SNAP-surface 549) on the SNAP tag, kinesin-1 heavy chain KIF5B, residues 1-349, D279R in the L12 loop) MADLAECNIKVMCRFRPLNESEVNRGDKYIAKFQGEDTVVIASKPYAFDRVFQSSTSQEQVYNDCAKKIVKDVLEGYNGTIFAYGQTSSGKTHTMEGKLHDPEGMGIIPRIVQDIFNYIYSMDENLEFHIKVSYFEIYLDKIRDLLDVSKTNLSVHEDKNRVPYVKGCTERFVCSPDEVMDTIDEGKSNRHVAVTNMNEHSSRSHSIFLINVKQENTQTEQKLSGKLYLVDLAGSEKVSKTGAEGAVLDEAKNINKSLSALGNVISALAEGSTYVPYRRSKMTRILQDSLGGNCRTTIVICCSPSSYNESETKSTLLFGQRAKTIKNTVCVNVELTAEQWKKKYEKEKE | –
2 | ~6 fold | ~70 fold | – | single-headed KIF5B construct HK349 (residues 1-349, SNAP tag, His6) (domain or fragment, human, UniProt P33176 1-349, looked up, fluorescent dye BG-549 (SNAP-surface 549) on the SNAP tag, kinesin-1 heavy chain KIF5B, residues 1-349; monomeric construct; also called K349-SNAP-His; minimal motor) MADLAECNIKVMCRFRPLNESEVNRGDKYIAKFQGEDTVVIASKPYAFDRVFQSSTSQEQVYNDCAKKIVKDVLEGYNGTIFAYGQTSSGKTHTMEGKLHDPEGMGIIPRIVQDIFNYIYSMDENLEFHIKVSYFEIYLDKIRDLLDVSKTNLSVHEDKNRVPYVKGCTERFVCSPDEVMDTIDEGKSNRHVAVTNMNEHSSRSHSIFLINVKQENTQTEQKLSGKLYLVDLAGSEKVSKTGAEGAVLDEAKNINKSLSALGNVISALAEGSTYVPYRDSKMTRILQDSLGGNCRTTIVICCSPSSYNESETKSTLLFGQRAKTIKNTVCVNVELTAEQWKKKYEKEKE | fold increase in Kd against the WT–WT pair [3]: ~90 fold
3 | – | – | binds | two-headed KIF5B motor, human KIF5B construct HK432 (residues 1-432, SNAP tag, His6) (domain or fragment, UniProt P33176 1-432, looked up, fluorescent dye BG-549 (SNAP-surface 549) on the SNAP tag, human kinesin-1 heavy chain KIF5B, residues 1-432; also called WT KIF5B) MADLAECNIKVMCRFRPLNESEVNRGDKYIAKFQGEDTVVIASKPYAFDRVFQSSTSQEQVYNDCAKKIVKDVLEGYNGTIFAYGQTSSGKTHTMEGKLHDPEGMGIIPRIVQDIFNYIYSMDENLEFHIKVSYFEIYLDKIRDLLDVSKTNLSVHEDKNRVPYVKGCTERFVCSPDEVMDTIDEGKSNRHVAVTNMNEHSSRSHSIFLINVKQENTQTEQKLSGKLYLVDLAGSEKVSKTGAEGAVLDEAKNINKSLSALGNVISALAEGSTYVPYRDSKMTRILQDSLGGNCRTTIVICCSPSSYNESETKSTLLFGQRAKTIKNTVCVNVELTAEQWKKKYEKEKEKNKILRNTIQWLENELNRWRNGETVPIDEQFDKEKANLEAFTVDKDITLTNDKPATAIGVIGNFTDAERRKCEEEIAKLYKQL | MT-activated kinesin ATPase, apparent Michaelis–Menten constant K0.5MT as multiple of that with WT MTs [5]: 10 times of WT; MT-activated kinesin ATPase, kcat as percent of that with WT MTs [5]: 23 % of WT; MT-activated kinesin ATPase, apparent Michaelis–Menten constant K0.5MT as multiple of that with WT MTs [6]: 9.7 times of WT; MT-activated kinesin ATPase, kcat as percent of that with WT MTs [6]: 17 % of WT
4 | – | – | binds | D279N KIF5B, construct HK432 (residues 1-432, SNAP tag, His6) (domain or fragment, human, UniProt P33176 1-432, looked up, fluorescent dye BG-549 (SNAP-surface 549) on the SNAP tag, human kinesin-1 heavy chain KIF5B, residues 1-432, D279N in the L12 loop; also called mutant HK432) MADLAECNIKVMCRFRPLNESEVNRGDKYIAKFQGEDTVVIASKPYAFDRVFQSSTSQEQVYNDCAKKIVKDVLEGYNGTIFAYGQTSSGKTHTMEGKLHDPEGMGIIPRIVQDIFNYIYSMDENLEFHIKVSYFEIYLDKIRDLLDVSKTNLSVHEDKNRVPYVKGCTERFVCSPDEVMDTIDEGKSNRHVAVTNMNEHSSRSHSIFLINVKQENTQTEQKLSGKLYLVDLAGSEKVSKTGAEGAVLDEAKNINKSLSALGNVISALAEGSTYVPYRNSKMTRILQDSLGGNCRTTIVICCSPSSYNESETKSTLLFGQRAKTIKNTVCVNVELTAEQWKKKYEKEKEKNKILRNTIQWLENELNRWRNGETVPIDEQFDKEKANLEAFTVDKDITLTNDKPATAIGVIGNFTDAERRKCEEEIAKLYKQL | –
5 | – | – | binds | D279R KIF5B, construct HK432 (residues 1-432, SNAP tag, His6) (domain or fragment, human, UniProt P33176 1-432, looked up, fluorescent dye BG-549 (SNAP-surface 549) on the SNAP tag, human kinesin-1 heavy chain KIF5B, residues 1-432, D279R in the L12 loop; also called mutant HK432) MADLAECNIKVMCRFRPLNESEVNRGDKYIAKFQGEDTVVIASKPYAFDRVFQSSTSQEQVYNDCAKKIVKDVLEGYNGTIFAYGQTSSGKTHTMEGKLHDPEGMGIIPRIVQDIFNYIYSMDENLEFHIKVSYFEIYLDKIRDLLDVSKTNLSVHEDKNRVPYVKGCTERFVCSPDEVMDTIDEGKSNRHVAVTNMNEHSSRSHSIFLINVKQENTQTEQKLSGKLYLVDLAGSEKVSKTGAEGAVLDEAKNINKSLSALGNVISALAEGSTYVPYRRSKMTRILQDSLGGNCRTTIVICCSPSSYNESETKSTLLFGQRAKTIKNTVCVNVELTAEQWKKKYEKEKEKNKILRNTIQWLENELNRWRNGETVPIDEQFDKEKANLEAFTVDKDITLTNDKPATAIGVIGNFTDAERRKCEEEIAKLYKQL | binding frequency, fold of that of WT KIF5B to WT MT [7]: 2 fold
